{"source": "patent US20140363465A1", "molecular_target": "SIINFEKL:H-2K^b complex on the surface of A3.1A7 macrophage cells (chicken)", "assay": "cell-based or functional assay", "data": [{"sequence": "T cell receptor of the RF33.70 T-T hybridoma (CD8+, SIINFEKL-specific, H-2K^b-restricted) (TCR)", "values": [{"measurement": "IL-2 production by the RF33.70 T cell hybridoma (sandwich ELISA), SIINFEKL peptide concentration giving a detectable response", "value": "< 0.1", "unit": "pg/mL"}, {"measurement": "level of IL-2 production generated in response to free SIINFEKL peptide", "value": "< 275", "unit": "pg/mL"}]}]}
